The supplement of paper PMC12764529
± gives the half width of the 95% confidence interval.

Assays:
[1] = folding stability dG unfold from trypsin proteolysis; higher = more stable
Summary of the method: (§1)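 Mini-proteins designed to be under 80 residues and free of cysteine were carried in a PA-tagged cDNA display construct and digested with trypsin and with chymotrypsin. Each protease was applied at 11 threefold-diluted concentrations, alongside a no-protease condition, before sequencing. K50 came from Bayesian fitting of the sequencing counts, and unfolding free energy was obtained by comparing it with a sequence-predicted unfolded-state K50 and a shared folded-state K50, for each protease separately or for both together. Designs were retained only if their AlphaFold2 dimer inter-PAE exceeded 15.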

[2] = folding stability dG unfold from chymotrypsin proteolysis; higher = more stable
Summary of the method: as §1

[3] = folding stability dG unfold (combined trypsin and chymotrypsin); higher = more stable
Summary of the method: as §1

Row | Sequence | folding stability dG unfold [1] [kcal/mol] | folding stability dG unfold [2] [kcal/mol] | folding stability dG unfold [3] [kcal/mol]
1 | SAGTIRIVVPAEELSDEEIEALAEELRKLFPNAKIVRVERRVETLPDGRKRTYVVLEIHIELPPPPEEESAG [r5_835_TrROS_Hall] | 4 ± 0.13 | 4.33 ± 0.12 | 4.26 ± 0.14
2 | SAGTLEEALEDPSNETVEIEIEIPTGEYPLSDPEKVEELAEEKKKEIEKKLKEKGKNVKIIFKVSLKPLSAG [r5_408_JUSTAS] | 0.366 ± 0.07 | 0.213 ± 0.15 | 0.447 ± 0.16
3 | SAGTPEEVLQRAKELANRFQDRARDNGMDVKVDITQVEPNRIRINIEMRPPNGRRHRMPIEIELPKDDISAG [r5_994_TrROS] | 1.27 ± 0.079 | 1.65 ± 0.036 | 1.43 ± 0.2
4 | SAGTTSVVSTETTEFPDGTVTTTTTVLYLEPEGDGYVKVSETRVTTTYTIDPATGTVVTSTTTTTPLAGSAG [r5_828_JUSTAS] | 1.79 ± 0.063 | 2.17 ± 0.063 | 1.99 ± 0.098
5 | SAGTTVTLTDPVTGNVTTITKDPTDPNLWTVTLPDGSSVTAKRSEIAKKLGLSPEKLLSDYPVPSVSLTSAG [r5_156_JUSTAS] | 1.94 ± 0.031 | 1.88 ± 0.024 | 1.94 ± 0.038
6 | SAGTVKVSEDGDKLTVTMTAPPESPALVEALIQALKDAGLTIVTAEITTEPGEGDLVRTTITLTLKPPASAG [r5_739_JUSTAS] | 2.33 ± 0.082 | 2.545 ± 0.024 | 2.46 ± 0.06
7 | SAGVEIKTDPSKPVITITINYTSIEEAKEYIEKLVKEIGAKEVKIKEDPNSNKITATIDLKDIKKIEKLSAG [r5_598_JUSTAS] | -0.144 ± 0.52 | 1.46 ± 0.19 | 1.09 ± 0.41
8 | SAGVIPESLIEKVETEEYPGGITRSTYTYPDGVTVTVEETKVPGTDGITRKITVYPPTNTTTETTVTDPSAG [r5_802_JUSTAS] | 0.29 ± 0.098 | 0.348 ± 0.16 | 0.44 ± 0.12
9 | SAGVKELAEEIADEFQKPGWQVEVEVDPGDGTITVQMRMPDYQYEIEIKITPENGKPQVDIKWRPPNDSAGG [r19_2_TrROS] | 1.51 ± 0.16 | 1.49 ± 0.11 | 1.56 ± 0.31
10 | SAGVPLSSVPESEVAEEVEFPKHGLKLLRDTATGKWYLQEGDTATVIPPEEAAKLLAEIKAPKPSPELLSAG [r14_516_JUSTAS] | 1.33 ± 0.073 | 1.01 ± 0.083 | 1.2 ± 0.082
11 | SAGVTITTNPESGTVTITIPFPDGSSATIELNYGGSLPTKPSITSFKVNPYDNGKPIIPADELVKKILSSAG [r5_842_TrMRF] | 0.96 ± 0.056 | 1.57 ± 0.13 | 1.39 ± 0.35
12 | SAGWFVRIEIEPPGEKREIMIPFSWDEARELLKDLGLEVEVDPESPTFEFKLPNYQIKVEFMPIPPGQMSAG [r5_248_TrROS] | 2.34 ± 0.12 | 3.6 ± 0.049 | 3.21 ± 0.12
13 | SAGWHEIEIEIMIPFPKENAEELAKEIAEEIARMHGFKITNIEVQVYPTDGEYYVMIPVKIRIPPPNDTSAG [r14_219_TrROS] | 2.81 ± 0.061 | 3.15 ± 0.056 | 3.05 ± 0.11
14 | SAGWRMTIWVQYELPPGMPPERAKEAVRDIIRDIMRRFGLPMPPGMKIDIEPVEPSNDYVYYKVTIEFPSAG [r14_735_TrROS] | 4.37 ± 0.26 | 5.52 ± 0.15 | 5.22 ± 0.33
15 | SAGYEIVKEIAEELGFPVEIDRIEYDPDHGTIKFTARMRPKDGKKYRVQIMIHVPPENGNVDIELEYVPSAG [r5_929_TrROS] | 2.09 ± 0.074 | 2.6 ± 0.16 | 2.56 ± 0.2
16 | SAGYFIMVKFEFPDGGPQEFMIWIPPDENPEKLTKEEAKEVAKSIANSNQDQGGFEVKDVEIMPPDDMSAGG [r19_27_TrROS] | 0.611 ± 0.1 | 2.03 ± 0.088 | 1.58 ± 0.15
17 | SAGYIRIEKDNDYYKIEFLFPPNDPSLIENLVEAIRQKGWKVKDVEVEVEPNKDGMYRVEIDFKIKPPDSAG [r5_739_TrROS] | 2.53 ± 0.12 | 3.31 ± 0.099 | 2.88 ± 0.17
18 | SAGYVEPYEDGMVKIDSTFFLNDWVFKVDWWIMPNGNIMISIEPIEPIPPPPPVPIDADDPEQKEEAQQSAG [r5_715_TrROS] | 1.69 ± 0.18 | 2.69 ± 0.069 | 2.41 ± 0.23
19 | SAIKGMPLEELAKHIENEMRKMHPNVKIKVEIVDVPPDYLVIEVEITVRHPNPGGQQVEFPMTIVIDLDSAG [r14_187_TrROS] | 1.81 ± 0.21 | 1.5 ± 0.17 | 1.81 ± 0.21
20 | SAISPTERVEATDYKSPNGAVGSTTTFPDPEGSTVSIVREGSTWRLVTVNPDGSVSEREVSPEEAAALLASA [r9_1144_JUSTAS] | 1.89 ± 0.04 | 1.71 ± 0.065 | 1.86 ± 0.067
21 | SAKASELLKKLPFEAEIEEGEEFVKIKLKNPFLKNPNVTFEFEIPTKKGKPIKVKVTLTKNGAEKIEPSSAG [r14_401_TrMRF] | 2.57 ± 0.14 | 2.18 ± 0.078 | 2.25 ± 0.34

Row | Sequence | folding stability dG unfold [1] [kcal/mol] | folding stability dG unfold [2] [kcal/mol] | folding stability dG unfold [3] [kcal/mol]
22 | SAKDIEIEMERTNGYYQMTIKLPGKGYEISVWMPGDQYEISVQPPKNPDEVETIPFTVPEIKDALIDALSAG [r14_716_TrROS] | 0.519 ± 0.12 | 1.26 ± 0.16 | 1.18 ± 0.3
23 | SAKEEEKKKKKEKKKPKPKTVEITVYINGKKIKKIKFNKKTKKITITLENGKKITIPPGMSLEEILKKLSAG [r14_59_TrROS_Hall] | 2.16 ± 0.16 | 3.37 ± 0.1 | 2.88 ± 0.24
24 | SAKIKVEIVEIDEKTGTIKIKAEIELPDGTKIELEATIKIEPVEVEKKEVTDKNGKKITVTKIKIKLPEKSA [r9_610_TrROS_Hall] | 2.05 ± 0.5 | 2.52 ± 0.24 | 2.59 ± 0.71
25 | SAKITKIEINEDGTLTITIEVELPEGMEADELVIFVEVDGKIYEATIKKDGTVEIKLKNIKDLKIYIFKKSA [r9_722_TrROS_Hall] | 3.87 ± 0.28 | 5.04 ± 0.12 | 4.95 ± 0.16
26 | SAKKKKPLPKIKKIKITITLKDGTKIEMEITKVEVLEDGTVKIKMKMKVIDKKTKKKYEFEIEIIIKLKSAG [r14_591_TrROS_Hall] | 2.96 ± 0.27 | 3.28 ± 0.17 | 3.27 ± 0.21
27 | SAKKKVVELEIEIEVPPEDLTEEELKEKVLEALRKLFPDLKIKKIEIEVRVERKEDGSLKVTVKIKIEPSAG [r14_145_TrROS_Hall] | 3.03 ± 0.13 | 2.01 ± 0.14 | 2.65 ± 0.28
28 | SAKKKVVVEIEIPKEDMSKEEVKEALREAAKELGLELPEEEIEKLVEEARKKGLSIEEVLRKLKEEGLLSAG [r14_364_TrROS_Hall] | 0.693 ± 0.056 | 1.47 ± 0.054 | 1.12 ± 0.12
29 | SAKKLDIKVDGIQRPENNVMILIRIDPGLPPEKDVTITIKGKNGHKQEIPYENDHIYIMVPAQDITIKISAG [r14_350_TrROS] | 1.8 ± 0.077 | 2.68 ± 0.045 | 2.25 ± 0.34
30 | SAKKVKPIAKLTITDENGNTYEITVTVKEVDGKLVVEAEVYNKDGELVARVTAVFDNGKLVAVSIELLPSAG [r14_828_TrROS_Hall] | 2.11 ± 0.13 | 3.03 ± 0.072 | 2.8 ± 0.17
31 | SAKMKLPEGAKPIAEKDGITIVEVPNKVIIRVRLPDGKEVTLTFPKSDLEEIEALIRELKDAGIEEIEFSAG [r14_12_TrROS_Hall] | 0.876 ± 0.024 | 0.762 ± 0.12 | 0.815 ± 0.07
32 | SAKMTAEELAKKLAEELAKKLGVKVKVEVEVKVEEKDGKLVIEVKIKVYNENGELIEEIKIEIVLPKEESAG [r14_708_TrROS_Hall] | 2.92 ± 0.35 | 3.84 ± 0.26 | 3.51 ± 0.28
33 | SAKPKVIAEITIYNKETGKVVRITLTDEALEEAKKKGLKEVKLTVEIEVVNPDGSKKTFKMEITLKVEDSAG [r14_100_TrROS_Hall] | 2.77 ± 0.26 | 4.08 ± 0.17 | 3.96 ± 0.26
34 | SAKPPVIVIRIEKKEDGTYRVTIEVDGKEIEIEVPEGTSLEEILKKLAEELGVEVEVVEVKDGYLVIKPSAG [r14_404_TrROS_Hall] | 2.82 ± 0.2 | 2.88 ± 0.092 | 2.84 ± 0.26
35 | SAKTIPINIWGPLGDMDRMAEEIARMIARKLGLPANLKKIKIKFTEIEPWPDPDGKPRWVRMSIEIKVKSAG [r14_736_TrROS] | 3.55 ± 0.06 | 3.61 ± 0.095 | 3.45 ± 0.19
36 | SAKVKISIEFDKKTNKVTIKVKYKGDKEKEKEITLSLEELQKKLGKPLSLEEIIKLLKEKGIDEVEIYPSAG [r14_809_TrROS_Hall] | 3.44 ± 0.14 | 4.26 ± 0.093 | 4.06 ± 0.15
37 | SALDAKEIAEEFMKKFPPNFRDITVDVENTGNKRKIKIMFRMPNRYWTQEFDLDDGKIEIEPINPGQPLSAG [r14_737_TrROS] | 0.862 ± 0.091 | 0.368 ± 0.15 | 0.672 ± 0.066
38 | SALEANIKKAEELAKPEEKVPEFPVKVGDLYIKSVRFFPSTKKVVLFLPNGEKIEADPNVTLEEILKAISAG [r14_59_TrMRF] | 0.759 ± 0.075 | 0.254 ± 0.13 | 0.51 ± 0.15
39 | SALGEEEVLRALKAAAAPLPKVEPVLRKVTVLVPETGEPFEVEVLAYRLENGEIFPVPAEATEALAEALASA [r9_1056_TrMRF] | -0.549 ± 0.36 | -0.1 ± 0.41 | -0.274 ± 0.19
40 | SALLENGGIFISINLEWDPEYNWIRIKRFTIYWNGKVIATQPQWIPVPPPPPPPPPEREYNPNDPDNNKSAG [r14_571_TrROS] | 3.19 ± 0.19 | 5.06 ± 0.085 | 4.56 ± 0.16
41 | SALPALLEAAEAGESGTFIPIVADPEAAAVLRAVLERLGFTLVSEEPVPAGARPVFVGVYYFDPVSGRNRSA [r9_498_TrMRF] | 1.1 ± 0.047 | 2.38 ± 0.17 | 1.84 ± 0.091
42 | SALPPEVVRKLALDALRALYPDEPFVPVSMEVDPETGEVTVLVARPGPDDSLRLVRRTFRVLDDGRVLGSAG [r14_183_TrMRF] | 2.8 ± 0.067 | 3.07 ± 0.071 | 2.98 ± 0.062
